Results from publication PMC12416549 (2024).
Positions count from the first letter of the chain named. Names and notes keep the numbering of the source. Blank lines part the entries; values can stand above or below the binder they belong to.

Molecular target: T1, TNFR1 (Homo sapiens, UniProt P19438)
T1 chain: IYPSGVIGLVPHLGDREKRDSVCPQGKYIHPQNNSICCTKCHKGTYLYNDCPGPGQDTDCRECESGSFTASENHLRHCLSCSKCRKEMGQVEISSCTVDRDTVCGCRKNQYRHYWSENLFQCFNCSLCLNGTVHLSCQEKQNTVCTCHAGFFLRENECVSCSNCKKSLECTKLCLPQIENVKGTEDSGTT
Test: yeast display SC50

apparent Kd (screen): 20.2 nM
B1: E54V (designed binder)
chain: SMEEEVEKAAKEYEKKKKEAIEKHLEKLKAKDKEAAERFLKELEEAAKEYAKDVAKTMSEEEAKRRAKKYKEKVLLSELSEEEQKEIKEAEEKLVRTILKYVEEAAK

apparent Kd (screen): 0.593 nM
B2: S59H (designed binder)
chain: B1 chain with V54E, S59H

apparent Kd (screen): 0.653 nM
B3: A36Q (designed binder)
chain: B1 chain with A36Q, V54E

apparent Kd (screen): 0.593 nM
B4: K8A (designed binder)
chain: B1 chain with K8A, V54E

apparent Kd (screen): 0.956 nM
B5: A10L (designed binder)
chain: B1 chain with A10L, V54E

apparent Kd (screen): 2.73 nM
B6: Y101W (designed binder)
chain: B1 chain with V54E, Y101W

apparent Kd (screen): 4.39 nM
B7: E7K (designed binder)
chain: B1 chain with E7K, V54E

apparent Kd (screen): 7.07 nM
B8: E91T (designed binder)
chain: B1 chain with V54E, E91T

apparent Kd (screen): 0.49 nM
B9: Y101H (designed binder)
chain: B1 chain with V54E, Y101H

apparent Kd (screen): 0.869 nM
B10: K33S (designed binder)
chain: B1 chain with K33S, V54E

apparent Kd (screen): 0.49 nM
B11: L40H (designed binder)
chain: B1 chain with L40H, V54E

apparent Kd (screen): 2.73 nM
B12: E62V (designed binder)
chain: B1 chain with V54E, E62V

apparent Kd (screen): 0.653 nM
B13: K17R (designed binder)
chain: B1 chain with K17R, V54E

apparent Kd (screen): 0.593 nM
B14: E22F (designed binder)
chain: B1 chain with E22F, V54E

apparent Kd (screen): 0.49 nM
B15: E103Q (designed binder)
chain: B1 chain with V54E, E103Q

apparent Kd (screen): 12.5 nM
B16: Q84W (designed binder)
chain: B1 chain with V54E, Q84W

apparent Kd (screen): 0.539 nM
B17: E37Q (designed binder)
chain: B1 chain with E37Q, V54E

apparent Kd (screen): 0.446 nM
B18: L40G (designed binder)
chain: B1 chain with L40G, V54E

apparent Kd (screen): 1.16 nM
B19: K18T (designed binder)
chain: B1 chain with K18T, V54E

apparent Kd (screen): 0.593 nM
B20: K29H (designed binder)
chain: B1 chain with K29H, V54E

apparent Kd (screen): 0.539 nM
B21: K41D (designed binder)
chain: B1 chain with K41D, V54E

apparent Kd (screen): 0.446 nM
B22: K16L (designed binder)
chain: B1 chain with K16L, V54E

apparent Kd (screen): 0.49 nM
B23: A10D (designed binder)
chain: B1 chain with A10D, V54E

apparent Kd (screen): 0.539 nM
B24: A46Q (designed binder)
chain: B1 chain with A46Q, V54E

apparent Kd (screen): 3 nM
B25: A47W (designed binder)
chain: B1 chain with A47W, V54E

apparent Kd (screen): 0.869 nM
B26: L75F (designed binder)
chain: B1 chain with V54E, L75F

apparent Kd (screen): 0.446 nM
B27: A90M (designed binder)
chain: B1 chain with V54E, A90M

apparent Kd (screen): 0.593 nM
B28: K85S (designed binder)
chain: B1 chain with V54E, K85S

apparent Kd (screen): 0.49 nM
B29: K48T (designed binder)
chain: B1 chain with K48T, V54E

apparent Kd (screen): 22.2 nM
B30: Y70V (designed binder)
chain: B1 chain with V54E, Y70V

apparent Kd (screen): 2.05 nM
B31: R38T (designed binder)
chain: B1 chain with R38T, V54E

apparent Kd (screen): 0.593 nM
B32: K11R (designed binder)
chain: B1 chain with K11R, V54E

apparent Kd (screen): 9.41 nM
B33: K73R (designed binder)
chain: B1 chain with V54E, K73R

apparent Kd (screen): 0.869 nM
B34: K93T (designed binder)
chain: B1 chain with V54E, K93T

apparent Kd (screen): 0.49 nM
B35: A90E (designed binder)
chain: B1 chain with V54E, A90E

apparent Kd (screen): 1.05 nM
B36: A35H (designed binder)
chain: B1 chain with A35H, V54E

apparent Kd (screen): 0.446 nM
B37: E91D (designed binder)
chain: B1 chain with V54E, E91D

apparent Kd (screen): 8.56 nM
B38: D32P (designed binder)
chain: B1 chain with D32P, V54E

apparent Kd (screen): 0.49 nM
B39: E19Q (designed binder)
chain: B1 chain with E19Q, V54E

apparent Kd (screen): 0.446 nM
B40: E12A (designed binder)
chain: B1 chain with E12A, V54E

apparent Kd (screen): 5.31 nM
B41: L99G (designed binder)
chain: B1 chain with V54E, L99G

apparent Kd (screen): 0.653 nM
B42: A47T (designed binder)
chain: B1 chain with A47T, V54E

apparent Kd (screen): 0.956 nM
B43: A105S (designed binder)
chain: B1 chain with V54E, A105S
